Test results from US20230365712A1.

Molecular target: Notch4^GFP expressed in transfected Jurkat cells

For Jagged1 (ligand), the Notch4-GFP positive cells (%), Jagged1 without mAb was 53.5%.
